Data published in paper PMC12381214 (2025).
Where a chain is given by its changes, count along the chain named. Names and notes keep the numbering of the source.

Biological target: human Juno ectodomain, wild type (Juno-His10-SpyTag-LPETGG) (human, glycosylated (sites not given); SpyTag joined by an isopeptide bond to a SpyCatcher polyprotein)
Test: FACS

Sequence of human Juno ectodomain, wild type (Juno-His10-SpyTag-LPETGG) (human, glycosylated (sites not given); SpyTag joined by an isopeptide bond to a SpyCatcher polyprotein) (chain, as listed by the source): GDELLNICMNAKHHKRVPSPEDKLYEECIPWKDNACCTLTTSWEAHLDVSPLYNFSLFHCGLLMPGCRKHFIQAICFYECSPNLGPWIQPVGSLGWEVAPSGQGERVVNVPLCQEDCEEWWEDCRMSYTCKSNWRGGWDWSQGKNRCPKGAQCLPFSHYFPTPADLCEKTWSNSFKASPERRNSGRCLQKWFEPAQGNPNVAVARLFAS

B1: human Izumo1 ectodomain E71A (Izumo1E71A-His10-SpyTag-LPETGG) (domain or fragment)
chain: CVICDPSVVLALKSLEKDYLPGHLDAKHHKAMMERVENAVKDFQELSLNADAYMGVVDEATLQKGSWSLLKDLKRITDSDVKGDLFVKELFWMLHLQKETFATYVARFQKEAYCPNKCGVMLQTLIWCKNCKKEVHACRKSYDCGERNVEVPQMEDMILDCELNWHQASEGLTDYSFYRVWGNNTETLVSKGKEATLTKPMVGPEDAGSYRCELGSVNSSPATIINFHVTVLP
modifications: glycosylated (sites not given); SpyTag joined by an isopeptide bond to a SpyCatcher polyprotein
  Kd: 43 nM

B2: human Izumo1 ectodomain R160A (Izumo1R160A-His10-SpyTag-LPETGG) (domain or fragment)
chain: B1 chain with A50E, R139A
modifications: glycosylated (sites not given); SpyTag joined by an isopeptide bond to a SpyCatcher polyprotein
  Kd: 157 nM

B3: human Izumo1 ectodomain H157A (Izumo1H157A-His10-SpyTag-LPETGG) (domain or fragment)
chain: B1 chain with A50E, H136A
modifications: glycosylated (sites not given); SpyTag joined by an isopeptide bond to a SpyCatcher polyprotein
  Kd: 243 nM
